The experiment deals with 3HA-3FLAG-SPAK (mouse, UniProt Q9Z1W9 1-556). The experiment is described as follows: pull-down.

B1: BioEase-FBXL5 (natural protein)
chain: MAPFPEEVDVFTAPHWRMKQLVGLYCDKLSKTNFSNNNDFRALLQSLYATFKEFKMHEQIENEYIIGLLQQRSQTIYNVHSDNKLSEMLSLFEKGLKNVKNEYEQLNYAKQLKERLEAFTRDFLPHMKEEEEVFQPMLMEYFTYEELKDIKKKVIAQHCSQKDTAELLRGLSLWNHAEERQKFFKYSVDEKSDKEAEVSEHSTGITHLPPEVMLSIFSYLNPQELCRCSQVSMKWSQLTKTGSLWKHLYPVHWARGDWYSGPATELDTEPDDEWVKNRKDESRAFHEWDEDADIDESEESAEESIAISIAQMEKRLLHGLIHNVLPYVGTSVKTLVLAYSSAVSSKMVRQILELCPNLEHLDLTQTDISDSAFDSWSWLGCCQSLRHLDLSGCEKITDVALEKISRALGILTSHQSGFLKTSTSKITSTAWKNKDITMQSTKQYACLHDLTNKGIGEEIDNEHPWTKPVSSENFTSPYVWMLDAEDLADIEDTVEWRHRNVESLCVMETASNFSCSTSGCFSKDIVGLRTSVCWQQHCASPAFAYCGHSFCCTGTALRTMSSLPESSAMCRKAARTRLPRGKDLIYFGSEKSDQETGRVLLFLSLSGCYQITDHGLRVLTLGGGLPYLEHLNLSGCLTITGAGLQDLVSACPSLNDEYFYYCDNINGPHADTASGCQNLQCGFRACCRSGE
modifications: biotin (biotinylated FBXL5, BioEase tag)
As to B1, the binding result is recorded as “binds”.

For the origin of these results see paper doi:10.1101/133777 (bioRxiv, 2017).
